Measurements published in paper PMC6026032.

B1: Cbln1: Cbln1N23Q (protein)
parent chain: MLGVVELLLLGTAWLAGPARGQNETEPIVLEGKCLVVCDSNPTSDPTGTALGISVRSGSAKVAFSAIRSTNHEPSEMSNRTMIIYFDQVLVNIGNNFDSERSTFIAPRKGIYSFNFHVVKVYNRQTIQVSLMLNGWPVISAFAGDQDVTREAASNGVLIQMEKGDRAYLKLERGNLMGGWKYSTFSGFLVFPL
B2: Cbln1: Cbln1N79Q (protein)
parent chain: B1 parent chain
B3: Cbln4: Cbln4N26Q (protein)
parent chain: MGSARRALSVVPAVLLILVLPVWAQNDTEPIVLEGKCLVVCDSNPATDSKGSSSSPLGISVRAANSKVAFSAVRSTNHEPSEMSNKTRIIYFDQILVNVGNFFTLESVFVAPRKGIYSFSFHVIKVYQSQTIQVNLMLNGKPVISAFAGDKDVTREAATNGVLLYLDKEDKVYLKLEKGNLLGGWQYSTFSGFLVFPL
B4: Cbln4: Cbln4N85Q (protein)
parent chain: B3 parent chain
B5: Cbln1: N23Q (protein)
parent chain: B1 parent chain
B6: Cbln1: N79Q (protein)
parent chain: B1 parent chain
B7: Cbln2: N110Q (protein)
parent chain: MPAPGQGPRGPLLSMPGRRGALREPADFGSSLGAVLALLLLLLPACCPVRAQNDTEPIVLEGKCLVVCDSSPSGDGAVTSSLGISVRSGSAKVAFSATRSTNHEPSEMSNRTMTIYFDQVLVNIGNHFDLASSIFVAPRKGIYSFSFHVVKVYNRQTIQVSLMQNGYPVISAFAGDQDVTREAASNGVLLLMEREDKVHLKLERGNLMGGWKYSTFSGFLVFPL
B8: Cbln2: Cbln2N110Q (protein)
parent chain: B7 parent chain
B9: Cbln2: Cbln2N53Q (protein)
parent chain: B7 parent chain

Experiment: co-IP from conditioned medium
Conditions: glycan lost; control: wild type

| Protein | oligomerisation |
| --- | --- |
| B1 | no change |
| B2 | no change |
| B3 | no change |
| B4 | no change |

Experiment: immunoblot of HEK293T conditioned medium
Conditions: glycan lost; control: wild type

| Protein | expression_or_secretion |
| --- | --- |
| B5 | no change |
| B6 | no change |
| B7 | no change |

Experiment: native gel electrophoresis, HA immunoblot
Conditions: glycan lost; control: wild type

| Protein | oligomerisation |
| --- | --- |
| B1 | no change |
| B2 | no change |
| B3 | changes |
| B4 | no change |
| B8 | no change |
| B9 | no change |
